Values quoted from earlier work as cited in patent publication US20030158199A1, “Novel compounds for inhibition of Tie-2” (KYLIX, B.V., priority 2002, published 2003).

Test system: tumor metastasis
Settings: delivered at the time of surgical excision of primary tumors, mouse model; cited from earlier work

B1: Ad-ExTek: a soluble adenoviral expressed extracellular domain of Tie-2 (protein, UniProt Q02763 23-748, looked up)
extracellular domain: AMDLILINSLPLVSDAETSLTCIASGWRPHEPITIGRDFEALMNQHQDPLEVTQDVTREWAKKVVWKREKASKINGAYFCEGRVRGEAIRIRTMKMRQQASFLPATLTMTVDKGDNVNISFKKVLIKEEDAVIYKNGSFIHSVPRHEVPDILEVHLPHAQPQDAGVYSARYIGGNLFTSAFTRLIVRRCEAQKWGPECNHLCTACMNNGVCHEDTGECICPPGFMGRTCEKACELHTFGRTCKERCSGQEGCKSYVFCLPDPYGCSCATGWKGLQCNEACHPGFYGPDCKLRCSCNNGEMCDRFQGCLCSPGWQGLQCEREGIQRMTPKIVDLPDHIEVNSGKFNPICKASGWPLPTNEEMTLVKPDGTVLHPKDFNHTDHFSVAIFTIHRILPPDSGVWVCSVNTVAGMVEKPFNISVKVLPKPLNAPNVIDTGHNFAVINISSEPYFGDGPIKSKKLLYKPVNHYEAWQHIQVTNEIVTLNYLEPRTEYELCVQLVRRGEGGEGHPGPVRRFTTASIGLPPPRGLNLLPKSQTTLNLTWQPIFPSSEDDFYVEVERRSVQKSDQQNIKVPGNLTSVLLNNLHPREQYVVRARVNTKAQGEWSEDLTAWTLSDILPPQPENIKISNITHSSAVISWTILDGYSISSITIRYKVQGKNEDQHVDVKIKNATITQYQLKGLEPETAYQVDIFAENNIGSSNPAFSHELVTLPESQAPADLGGGKMLL
modifications: extracellular domain
For B1, the tumor metastasis is listed as “inhibited tumor metastasis”.
